Molecular target: purified recombinant HIS epitope-tagged NOTCH3 extracellular domain (human, UniProt Q9UM47 40-1643, glycosylated)
Experiment: SPR

purified recombinant HIS epitope-tagged NOTCH3 extracellular domain, sequence (Q9UM47 40-1643): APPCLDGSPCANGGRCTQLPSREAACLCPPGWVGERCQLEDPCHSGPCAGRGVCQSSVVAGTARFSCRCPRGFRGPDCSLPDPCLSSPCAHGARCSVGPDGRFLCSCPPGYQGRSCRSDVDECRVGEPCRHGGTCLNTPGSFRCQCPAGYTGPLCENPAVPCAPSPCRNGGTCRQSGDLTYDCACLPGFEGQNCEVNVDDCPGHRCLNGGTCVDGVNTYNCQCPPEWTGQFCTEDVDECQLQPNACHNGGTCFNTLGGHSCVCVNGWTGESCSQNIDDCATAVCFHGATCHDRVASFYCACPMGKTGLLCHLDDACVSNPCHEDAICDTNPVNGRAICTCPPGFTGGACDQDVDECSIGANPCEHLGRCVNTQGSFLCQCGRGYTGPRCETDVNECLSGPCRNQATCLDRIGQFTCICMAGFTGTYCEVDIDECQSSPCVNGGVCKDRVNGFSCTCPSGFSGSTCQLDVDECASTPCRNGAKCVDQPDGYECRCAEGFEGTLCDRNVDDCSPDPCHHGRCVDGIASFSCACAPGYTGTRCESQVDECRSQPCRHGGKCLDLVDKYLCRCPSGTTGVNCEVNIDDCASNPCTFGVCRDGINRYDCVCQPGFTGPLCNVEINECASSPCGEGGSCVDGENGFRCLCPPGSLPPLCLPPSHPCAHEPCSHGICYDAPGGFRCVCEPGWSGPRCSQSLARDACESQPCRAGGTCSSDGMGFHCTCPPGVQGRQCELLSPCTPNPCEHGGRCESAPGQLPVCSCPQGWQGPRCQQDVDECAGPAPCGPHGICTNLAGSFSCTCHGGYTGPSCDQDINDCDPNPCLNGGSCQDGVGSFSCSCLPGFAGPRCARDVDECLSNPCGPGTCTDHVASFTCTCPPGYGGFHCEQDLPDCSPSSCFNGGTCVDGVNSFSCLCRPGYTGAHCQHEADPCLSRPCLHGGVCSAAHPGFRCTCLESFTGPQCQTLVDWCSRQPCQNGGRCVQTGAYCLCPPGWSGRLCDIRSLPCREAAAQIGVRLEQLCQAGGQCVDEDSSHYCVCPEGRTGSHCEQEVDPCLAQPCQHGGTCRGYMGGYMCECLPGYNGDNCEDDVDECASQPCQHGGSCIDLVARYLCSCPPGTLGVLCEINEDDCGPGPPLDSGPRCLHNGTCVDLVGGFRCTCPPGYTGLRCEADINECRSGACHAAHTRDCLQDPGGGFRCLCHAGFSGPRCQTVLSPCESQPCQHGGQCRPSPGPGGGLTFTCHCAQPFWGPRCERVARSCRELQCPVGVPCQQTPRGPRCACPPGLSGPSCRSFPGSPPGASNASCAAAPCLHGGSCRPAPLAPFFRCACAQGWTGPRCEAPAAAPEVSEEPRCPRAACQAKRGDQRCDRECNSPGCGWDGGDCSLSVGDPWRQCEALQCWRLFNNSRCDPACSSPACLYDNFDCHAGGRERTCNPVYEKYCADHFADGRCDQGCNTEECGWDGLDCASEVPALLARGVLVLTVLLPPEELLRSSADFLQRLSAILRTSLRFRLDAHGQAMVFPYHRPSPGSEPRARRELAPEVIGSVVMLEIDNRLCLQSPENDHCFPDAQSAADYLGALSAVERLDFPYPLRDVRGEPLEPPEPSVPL

Binder	Kd
EKYCADHFADGR [N34 peptide]	13.1 nM
EKYGGGHFADGR [control peptide (EKYGGGHFADGR)]	1180 nM

Source: publication PMC13193388 (2025)
